Results as given in patent US7109299.
One block for each binder: values may come before it. Bridge positions count the residues as written; N and C are the ends. Ends that are not written are not given here.

Tests used:
[1] = biological target: T1, IL-5RαECD, extracellular domain (ECD) of the human IL-5 receptor α chain, soluble (human) (UniProt Q01344); experiment: competition with [125I] IL-5 for binding to immobilised IL-5Rα ECD; peptide after 10 days, disulfide-linked dimer
T1 sequence (Q01344 whole entry, looked up): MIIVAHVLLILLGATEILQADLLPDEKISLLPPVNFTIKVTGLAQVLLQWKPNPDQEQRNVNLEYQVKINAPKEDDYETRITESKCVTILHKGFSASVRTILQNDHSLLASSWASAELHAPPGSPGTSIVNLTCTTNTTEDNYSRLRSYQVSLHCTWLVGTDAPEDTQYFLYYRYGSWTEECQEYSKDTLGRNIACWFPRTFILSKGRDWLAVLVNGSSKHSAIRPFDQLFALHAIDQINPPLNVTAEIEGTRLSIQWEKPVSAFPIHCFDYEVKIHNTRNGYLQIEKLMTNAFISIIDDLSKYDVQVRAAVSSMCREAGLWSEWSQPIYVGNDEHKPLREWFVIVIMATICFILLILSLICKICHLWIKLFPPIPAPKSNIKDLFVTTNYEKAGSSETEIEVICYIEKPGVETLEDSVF

[2] = biological target: T1, IL-5RαECD, extracellular domain (ECD) of the human IL-5 receptor α chain, soluble (human); experiment: scintillation proximity competition assay, dimer against 20 pM [125I] IL-5 on IL-5Rα coated beads

IC50 [1]: 0.55 nM
B1: dimeric form of AF17362 (spontaneously formed disulfide-linked dimer) (peptide)
peptide: TGGGDGYVCVEWARCPTCK
modifications: disulfide 15-18; also: homodimer linked by a Cys9-Cys9 interchain disulfide, disulfide at 9, other end not in the chain

SPA pIC50 [2]: 8.1
B2: dimer of (H)-…-(NH2) (peptide)
peptide: H-EGYVCVEWARCPTCR-NH2
modifications: disulfide (positions not given here); also: dimer, intramolecular and intermolecular disulfide linkages, places not given here

SPA pIC50 [2]: 6.4
B3: dimer of (H)-…-(NH2) (peptide)
peptide: H-EGYVCVEFARCPTCR-NH2
modifications: disulfide (positions not given here); also: dimer, intramolecular and intermolecular disulfides, places not given here
